Measured values taken from the supplement of paper PMC5998384.

Assays:
HeLa Kyoto [1] = assay: thermal stability score vs G1/S (z-score of summed log2 fold changes over temperatures); higher = more thermally stable than in G1/S
HeLa Kyoto [2] = assay: solubility change mitosis vs G1/S (difference of NP-40 vs SDS log2 ratios) (log2 ratio difference); higher = more soluble in mitosis
HeLa Kyoto [3] = assay: melting temperature (median over replicates), in situ; higher = more thermally stable
HeLa Kyoto [4] = assay: solubility in G1/S (NP-40 vs SDS abundance) (log2 ratio); higher = more soluble; settings: cell cycle stage: G1/S
[5] = cell cycle stage: early G1 (4.5 h after nocodazole release)
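For melting temperature (median over replicates), in situ in this document: HeLa Kyoto cells synchronized by double thymidine or nocodazole block, proteins quantified by TMT10plex mass spectrometry, three independent biological replicates.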
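For solubility change mitosis vs G1/S (difference of NP-40 vs SDS log2 ratios) in this document: synchronized HeLa Kyoto cells (double thymidine block for G1/S, nocodazole release for mitosis), protein amounts in NP-40 versus SDS lysates quantified by mass spectrometry, three biological replicates.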
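For solubility in G1/S (NP-40 vs SDS abundance) in this document: HeLa Kyoto cells arrested at G1/S by double thymidine block, proteins quantified by TMT10plex mass spectrometry in mild NP-40 versus SDS extracts, three biological replicates.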
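For thermal stability score vs G1/S (z-score of summed log2 fold changes over temperatures) in this document: synchronized HeLa Kyoto cells, proteins quantified by TMT10plex mass spectrometry, three biological replicates, mitosis taken 0.5 h after nocodazole release, G1/S directly after double thymidine block.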

Row | Substance | thermal stability score (HeLa Kyoto [1]; [5]) | thermal stability score (HeLa Kyoto [1]; cell cycle stage: mitosis) | solubility change mitosis (log2) (HeLa Kyoto [2]) | melting temperature (HeLa Kyoto [3]; cell cycle stage: G1/S) [°C] | melting temperature (HeLa Kyoto [3]; cell cycle stage: mitosis) [°C] | solubility in G1/S (log2) (HeLa Kyoto [4])
1 | MANVGLQFQASAGDSDPQSRPLLLLGQLHHLHRVPWSHVRGKLQPRVTEELWQAALSTLNPNPTDSCPLYLNYATVAALPCRVSRHNSPSAAHFITRLVRTCLPPGAHRCIVMVCEQPEVFASACALARAFPLFTHRSGASRRLEKKTVTVEFFLVGQDNGPVEVSTLQCLANATDGVRLAARIVDTPCNEMNTDTFLEEINKVGKELGIIPTIIRDEELKTRGFGGIYGVGKAALHPPALAVLSHTPDGATQTIAWVGKGIVYDTGGLSIKGKTTMPGMKRDCGGAAAVLGAFRAAIKQGFKDNLHAVFCLAENSVGPNATRPDDIHLLYSGKTVEINNTDAEGRLVLADGVSYACKDLGADIILDMATLTGAQGIATGKYHAAVLTNSAEWEAACVKAGRKCGDLVHPLVYCPELHFSEFTSAVADMKNSVADRDNSPSSCAGLFIASHIGFDWPGVWVHLDIAAPVHAGERATGFGVALLLALFGRASEDPLLNLVSPLGCEVDVEEGDLGRDSKRRRLV [NPEPL1] | -4.2 | -3.53 | -0.0373 | 58.3 | 58.8 | 0.106
2 | MAILFAVVARGTTILAKHAWCGGNFLEVTEQILAKIPSENNKLTYSHGNYLFHYICQDRIVYLCITDDDFERSRAFNFLNEIKKRFQTTYGSRAQTALPYAMNSEFSSVLAAQLKHHSENKGLDKVMETQAQVDELKGIMVRNIDLVAQRGERLELLIDKTENLVDSSVTFKTTSRNLARAMCMKNLKLTIIIIIVSIVFIYIIVSPLCGGFTWPSCVKK [VAMP7] | 1.62 | 1.41 | -0.283 | 54.4 | 53.1 | -0.0498
3 | MNPTLILAAFCLGIASATLTFDHSLEAQWTKWKAMHNRLYGMNEEGWRRAVWEKNMKMIELHNQEYREGKHSFTMAMNAFGDMTSEEFRQVMNGFQNRKPRKGKVFQEPLFYEAPRSVDWREKGYVTPVKNQGQCGSCWAFSATGALEGQMFRKTGRLISLSEQNLVDCSGPQGNEGCNGGLMDYAFQYVQDNGGLDSEESYPYEATEESCKYNPKYSVANDTGFVDIPKQEKALMKAVATVGPISVAIDAGHESFLFYKEGIYFEPDCSSEDMDHGVLVVGYGFESTESDNNKYWLVKNSWGEEWGMGGYVKMAKDRRNHCGIASAASYPTV [CTSL] | 1.47 | 1.22 | 0.0996 | 53.9 | 55 | -0.176
4 | MAWALKLPLADEVIESGLVQDFDASLSGIGQELGAGAYSMSDVLALPIFKQEESSLPPDNENKILPFQYVLCAATSPAVKLHDETLTYLNQGQSYEIRMLDNRKLGELPEINGKLVKSIFRVVFHDRRLQYTEHQQLEGWRWNRPGDRILDIDIPMSVGIIDPRANPTQLNTVEFLWDPAKRTSVFIQVHCISTEFTMRKHGGEKGVPFRVQIDTFKENENGEYTEHLHSASCQIKVFKPKGADRKQKTDREKMEKRTPHEKEKYQPSYETTILTECSPWPEITYVNNSPSPGFNSSHSSFSLGEGNGSPNHQPEPPPPVTDNLLPTTTPQEAQQWLHRNRFSTFTRLFTNFSGADLLKLTRDDVIQICGPADGIRLFNALKGRMVRPRLTIYVCQESLQLREQQQQQQQQQQKHEDGDSNGTFFVYHAIYLEELTAVELTEKIAQLFSISPCQISQIYKQGPTGIHVLISDEMIQNFQEEACFILDTMKAETNDSYHIILK [TFCP2] | 0.94 | 2.72 | -0.0306 | 48.2 | 48.6 | -0.0776
5 | TRIP11 | 0.295 | 1.48 | -0.135 | 49.1 | 49 | 0.34
6 | CIT | 0.287 | 0.352 | -0.113 | 50.1 | 50.4 | -0.0433
